Laboratory results as given in the supplement of paper PMC10065799, “High-throughput profiling of sequence recognition by tyrosine kinases and SH2 domains using bacterial peptide display” (eLife, 2023).

target: SHP2-C SH2; experiment: SH2 binding enrichment of the phosphorylated peptide, bacterial display (enrichment ratio); higher = better substrate or ligand; peptides without Tyr show the background
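Also: peptide library displayed on the E. coli surface as eCPX fusions, selected cells deep-sequenced, score is each peptide's frequency after selection divided by its frequency in the input.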

Sequence | SH2 binding enrichment
IMAYFYMCDSA [CASD1_Y382_R386S] | 0.702
RLMLQYDAVVN [SLC25A32_Y152] | 0.863
RTMPDYTSFNT [EPHB2_Y912_I909M] | 0.463
FADIAYNYRHG [PAH_Y166] | 0.717
SREDIYKRNTE [PDE4DIP_Y45_I49T] | 0.691
RENGPYFASFP [GDAP2_Y487_T489A_YF] | 0.707
VGTKRYMASEV [ACVRL1_Y375_P378S] | 0.599
QLRPGYFPIPV [BAG3_Y93_I94F] | 0.906
HIAKGYRRDNP [HARS1_Y156_V155G] | 0.43
KASGKYFAMKI [AKT3_Y173_YF] | 1.45
KDFNKYVAFIE [KDM4B_Y31_YF] | 1.02
MGSYNYLGFPR [SPTLC2_Y178_A182P] | 1.92
HNLNYYKKTTN [FGFR3_Y648_D646N] | 0.683
WVFNHYRWIIW [BRCA2_Y2624_YF] | 0.776
MSRDVYSTDFF [NTRK2_Y702_YF] | 0.659
NNKKDYFDMFE [SLC26A3_Y526_K521N_YF] | 0.479
NWGSPYKSNGC [ZNF347_Y261] | 0.725

Sequence | SH2 binding enrichment
FTNRNYDLDFD [MYC_Y12_YF] | 0.659
KQNSLYSFSDH [CCDC82_Y331] | 0.609
DPLLTHRFPPK [LMNA_Y481_Y481H] | 0.661
MFDKEYFSVHN [MET_Y1234_YF] | 0.713
MSSLFYANALF [HOXB7_Y6_T9A_YF] | 0.64
GVTLLYFGRDN [ADGRD1_Y85_Y89D_YF] | 1.19
EHIEFYELDKK [PMM2_Y145_R141H] | 0.632
LRRREYQRQDY [PRKRIP1_Y90] | 0.727
NTVLGYFIGRI [GARS1_Y408] | 1.08
KASIMYPSSNC [CXCL11_Y52_N55S] | 0.7
HMEAVYIDIAD [PITPNA_Y140_V136M] | 0.847
KLRMESLSLMH [NCKIPSD_Y660_Y660S] | 0.923
ITLKGYNLSNS [GNPTAB_Y728_K732N] | 0.884
QGIFGYHHFMQ [UFSP2_Y287_YF] | 1.23
GFSDPYVKAFL [SYT3_Y470_S474F] | 0.686
CEHRGSLYLAI [TEK_Y897_Y897S] | 0.678

target: c-Src SH2; experiment: as above

Sequence | SH2 binding enrichment
IMAYFYMCDSA [CASD1_Y382_R386S] | 0.677
RLMLQYDAVVN [SLC25A32_Y152] | 1.88
RTMPDYTSFNT [EPHB2_Y912_I909M] | 0.521
FADIAYNYRHG [PAH_Y166] | 0.52
SREDIYKRNTE [PDE4DIP_Y45_I49T] | 0.344
RENGPYFASFP [GDAP2_Y487_T489A_YF] | 0.534
VGTKRYMASEV [ACVRL1_Y375_P378S] | 0.45
QLRPGYFPIPV [BAG3_Y93_I94F] | 0.475
HIAKGYRRDNP [HARS1_Y156_V155G] | 0.213
KASGKYFAMKI [AKT3_Y173_YF] | 1.21
KDFNKYVAFIE [KDM4B_Y31_YF] | 1.42
MGSYNYLGFPR [SPTLC2_Y178_A182P] | 2.84
HNLNYYKKTTN [FGFR3_Y648_D646N] | 0.479
WVFNHYRWIIW [BRCA2_Y2624_YF] | 0.717
MSRDVYSTDFF [NTRK2_Y702_YF] | 0.516
NNKKDYFDMFE [SLC26A3_Y526_K521N_YF] | 0.518
NWGSPYKSNGC [ZNF347_Y261] | 0.586

Sequence | SH2 binding enrichment
FTNRNYDLDFD [MYC_Y12_YF] | 3.48
KQNSLYSFSDH [CCDC82_Y331] | 0.466
DPLLTHRFPPK [LMNA_Y481_Y481H] | 0.458
MFDKEYFSVHN [MET_Y1234_YF] | 0.548
MSSLFYANALF [HOXB7_Y6_T9A_YF] | 0.693
GVTLLYFGRDN [ADGRD1_Y85_Y89D_YF] | 1.16
EHIEFYELDKK [PMM2_Y145_R141H] | 0.559
LRRREYQRQDY [PRKRIP1_Y90] | 0.435
NTVLGYFIGRI [GARS1_Y408] | 0.637
KASIMYPSSNC [CXCL11_Y52_N55S] | 0.565
HMEAVYIDIAD [PITPNA_Y140_V136M] | 0.696
KLRMESLSLMH [NCKIPSD_Y660_Y660S] | 0.746
ITLKGYNLSNS [GNPTAB_Y728_K732N] | 0.627
QGIFGYHHFMQ [UFSP2_Y287_YF] | 1.2
GFSDPYVKAFL [SYT3_Y470_S474F] | 0.51
CEHRGSLYLAI [TEK_Y897_Y897S] | 0.519
